Measured values as given in the supplement of paper PMC9170038.

Test system: MS2 coat protein
Assay: apparent KD of MS2 coat protein; designed switch direction (-1 OFF switch, 1 ON switch): -1; higher = weaker reporter binding
Procedure, shortened: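 SNAP-549-labelled MS2 coat protein was titrated, doubling from 0.7 or 1.5 nM to 3 µM, over designed RNA switches transcribed on Illumina chips by stalled E. coli RNA polymerase. Runs were done without input, with 200 uM small-molecule ligand, or with an oligonucleotide input. Apparent KD is the per-design median over clusters of curve-fitted normalised fluorescence.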

[1] = Eterna round: R95, input ligand: microRNA oligo, concentration not stated
[2] = input ligand: microRNA oligo, concentration not stated
[3] = Eterna round: R95, input ligand: FMN 200 uM
[4] = Eterna round: R95, input ligand: none

Sequence: CCAACUCAGGAGGAUAUCUCCGCGAGUUCACGAAGAGAAGGCCUGACAUGAGGAUCACCCAUGUGUCCAUGAGG [Eternabot (Original) Solution 8] (Eterna round: R97, puzzle: Exclusion 6)
- apparent KD of MS2 coat protein (input ligand: FMN 200 uM): 0.106 µM
- apparent KD of MS2 coat protein (input ligand: none): 0.0696 µM

Sequence: UGGGUUGUUGUGAGGAUAUACUGUUUGUUUUGUUUGUAGAAGGUACAUGAGGAUCACCCAUGUUGGUUGUGGUU [JR_BME4_Sub031] (puzzle: Brourd's mod of Exclusion 4)
- apparent KD of MS2 coat protein [1]: 0.204 µM

Sequence: AAUAACAAGCAGAUCCUAAACAUGAGGAUCACCCAUGUGCGCGUCUUGUAAAGUACUAUCACGAAAGUGAUAGUACA (Eterna round: R97, puzzle: Sensor, turn-off variant 1)
- apparent KD of MS2 coat protein (input ligand: FMN 200 uM): 0.19 µM
- apparent KD of MS2 coat protein (input ligand: none): 0.133 µM

Sequence: UUUACAAGCUAUAGAUCCCACAUGAGGAUCACCCAUGUUGCUGCCGUGAGGUAGCUUUUAACUAUUGCUCGUCUUAU [JL TOV1 3.36] (Eterna round: R97, puzzle: Sensor, turn-off variant 1)
- apparent KD of MS2 coat protein (input ligand: FMN 200 uM): 0.15 µM
- apparent KD of MS2 coat protein (input ligand: none): 0.181 µM

Sequence: CAUCUGUGAGGAUAUGGUGAGUAGUGCCUGAGCGCUGCUCACCAGAAGGCACAUGAGGAUCACCCAUGUAUGAC [JL-ex4-2.01 denovo] (puzzle: Exclusion 4)
- apparent KD of MS2 coat protein [1]: 0.0437 µM

Sequence: GGUGUCGUCAGAAGACAUGAGGAUCACCCAUGUAAAUGCACUGAGGAUAUACGGGCGACCGGCGUGUAGAAGGUAGAGCACGAA [Ladivequ] (Eterna round: R96, puzzle: Exclusion NG 3)
- apparent KD of MS2 coat protein (input ligand: FMN 200 uM): 0.043 µM
- apparent KD of MS2 coat protein [2]: 0.0245 µM
- apparent KD of MS2 coat protein (input ligand: none): 0.0416 µM

Sequence: GUGAGACAUGAGGAUCACCCAUGUGAGGAUAUCCGAAGGACCAAAUUAAGAAUAGAAGGGAGAAGGCACAUAAA [Exclusion 1 V6] (puzzle: Exclusion 1)
- apparent KD of MS2 coat protein [3]: 0.128 µM
- apparent KD of MS2 coat protein [1]: 0.0684 µM
- apparent KD of MS2 coat protein [4]: 0.157 µM

Sequence: UUCCAACAUGAGGAUCACCCAUGUCAGGAUAUCUAGGCUACUGCUACCACAAUUAGCUAGAGAAGGGACAAGAU [EX1 B.14] (Eterna round: R97, puzzle: Exclusion 1)
- apparent KD of MS2 coat protein (input ligand: FMN 200 uM): 0.0261 µM
- apparent KD of MS2 coat protein (input ligand: none): 0.0195 µM

Sequence: GUGCGCGGCUAGGAUAUUGUGGGUUUUUGUCUGCGAGAAGGAGCCACAUGAGGAUCACCCAUGUGGUGUUGCUC [salish99_ex6_r4_013] (Eterna round: R97, puzzle: Exclusion 6)
- apparent KD of MS2 coat protein (input ligand: FMN 200 uM): 0.22 µM
- apparent KD of MS2 coat protein (input ligand: none): 0.0636 µM

Sequence: AUUGUAGUUGUGAGGAUAUCGUUGAUUUUUUGAAACGAGAAGGCACAUGAGGAUCACCCAUGUAAGUUGUAGGU [JR_BMOE4_Sub055] (puzzle: Brourd's mod of Exclusion 4)
- apparent KD of MS2 coat protein [1]: 0.0776 µM

Sequence: AGCAUGUGAGGAUAUGCGGACUCCGGUAAAGCUGGAGUCCAGUAGAAGGCACAUGAGGAUCACCCAUGUGAGAU [Uszadi] (Eterna round: R96, puzzle: Exclusion 4)
- apparent KD of MS2 coat protein (input ligand: FMN 200 uM): 0.317 µM
- apparent KD of MS2 coat protein [2]: 0.0533 µM
- apparent KD of MS2 coat protein (input ligand: none): 0.0632 µM

Sequence: AUAAUGUAAGGAUAUCAGUCGUUAAUAAUUAAUUAAUCGACUGAGAAGGUACAUGAGGAUCACCCAUGUGAUCA [E4/8-B2] (Eterna round: R97, puzzle: Exclusion 4)
- apparent KD of MS2 coat protein (input ligand: FMN 200 uM): 0.0441 µM
- apparent KD of MS2 coat protein (input ligand: none): 1 µM

Sequence: AAUAACAGGCCGAUCCUAAACAUGAGGAUCACCCAUGUGCGCGUCUUGUAAAGUACUAUCACGAAAGUGAUAGUACA [Sensor v3, turn-off variant 1 (MOD of Eli's v1-59 v.3)] (puzzle: Sensor v3, turn-off variant 1)
- apparent KD of MS2 coat protein [3]: 0.0418 µM
- apparent KD of MS2 coat protein [1]: 0.0371 µM
- apparent KD of MS2 coat protein [4]: 0.0437 µM

Sequence: GCUCCAGGAGGAUAUGCAUUCGAAAACAUGAGGAUCACCCAUGUAGGUGUCCACGUGCGAGCAGAAGGCCUAAAAC [Riqu] (Eterna round: R97, puzzle: Exclusion 5)
- apparent KD of MS2 coat protein (input ligand: FMN 200 uM): 0.286 µM
- apparent KD of MS2 coat protein (input ligand: none): 0.646 µM

Sequence: UUUUUCGUUUAAGCUUCGUACAUGAGGAUCACCCAUGUUUUUAGUUCUGUGUUGGUCAGUAUGGAAGUUCGUCUUAU [JR_SV3TOV1_Sub089] (puzzle: Sensor v3, turn-off variant 1)
- apparent KD of MS2 coat protein [3]: 0.325 µM
- apparent KD of MS2 coat protein [1]: 0.166 µM
- apparent KD of MS2 coat protein [4]: 0.371 µM

Sequence: GGGUGACAUGAGGAUCACCCAUGUCAGGAUAUGAUACUAUGUACUUCGGUACAUAGUAUCAGAAGGGACAUCCC [Ex1-3: 16] (puzzle: Exclusion 1)
- apparent KD of MS2 coat protein [1]: 0.0418 µM

Sequence: CGGAGCGUGGGUAGGUGCAACAUGAGGAUCACCCAUGUCUCACAAGCUUUUUGCUCAUCUUAUUGUACCUUGGUGCU [Sensor v3, turn-off variant 1 (MOD of JL v.2)] (puzzle: Sensor v3, turn-off variant 1)
- apparent KD of MS2 coat protein [3]: 0.13 µM
- apparent KD of MS2 coat protein [1]: 0.0123 µM
- apparent KD of MS2 coat protein [4]: 0.146 µM

Sequence: AUAAGGGCAGGAUAUGCAGAAAAGAUUGGCGUGGUCCUGACACAUGAGGAUCACCCAUGUAGAAGGGCCUAGCC [Maquzaar] (Eterna round: R97, puzzle: Exclusion 2)
- apparent KD of MS2 coat protein (input ligand: FMN 200 uM): 0.0135 µM
- apparent KD of MS2 coat protein (input ligand: none): 0.0148 µM

Sequence: GCAGUUCGAGUUAGGAUAUGAUUAAAAUUCGGAUAUCAGAAGGAACUUGAGGAUCACCCAAGUAUAGAUGUUGC [JR_BMEx4_Sub059] (Eterna round: R97, puzzle: Brourd's mod of Exclusion 4)
- apparent KD of MS2 coat protein (input ligand: FMN 200 uM): 0.0421 µM
- apparent KD of MS2 coat protein (input ligand: none): 0.0171 µM

Sequence: UACUUGUUAGGAUAUCUUACAUUUGCAUCAUAGUAACCAUUGGAGAAGGGACAUGAGGAUCACCCAUGUUUGGA [tap-tap-tappy2] (Eterna round: R97, puzzle: Exclusion 4)
- apparent KD of MS2 coat protein (input ligand: FMN 200 uM): 0.0322 µM
- apparent KD of MS2 coat protein (input ligand: none): 0.0315 µM

Sequence: CUAAUAGCAGCAGGAUAUCUCACAUGAGGAUCACCCAUGUGGGACCGCCACCUCGUGUGUAAAGAAGAGAAGGGCUCGCACUCC [Eternabot solution 6] (Eterna round: R96, puzzle: Exclusion NG 2)
- apparent KD of MS2 coat protein (input ligand: FMN 200 uM): 0.0376 µM
- apparent KD of MS2 coat protein [2]: 0.0128 µM
- apparent KD of MS2 coat protein (input ligand: none): 0.0261 µM

Sequence: AGAGUAAUGCGAGGAUAUACAUGAGGAUCACCCAUGUGGUGGUGUGAGGCAAAGCCUCACACCAUGUAGAAGGCGCAUUACUCA [Mat - Exclusion NG 2 - Mod of JL - D21] (Eterna round: R96, puzzle: Exclusion NG 2)
- apparent KD of MS2 coat protein (input ligand: FMN 200 uM): 0.155 µM
- apparent KD of MS2 coat protein [2]: 0.0352 µM
- apparent KD of MS2 coat protein (input ligand: none): 0.0393 µM

Sequence: AACUACUCUGUGAGGAUAUGCGAUCGUUGAUCAAAGCAGAAGGCACAUGAGGAUCACCCAUGUUCCUACGAGGG [Edatbiat] (puzzle: Brourd's mod of Exclusion 4)
- apparent KD of MS2 coat protein [1]: 0.0302 µM

Sequence: ACAAGCUUGUAAUGACUUAACAUGAGGAUCACCCAUGUAAAUGGAAGAACCAACUUGAUAUGAUUUACUCGUCUUAU [JR_STOV1_Sub010] (Eterna round: R97, puzzle: Sensor, turn-off variant 1)
- apparent KD of MS2 coat protein (input ligand: FMN 200 uM): 1.14 µM
- apparent KD of MS2 coat protein (input ligand: none): 1.03 µM

Sequence: GUAAUCUUAGGAUAUUUACGGGUCGACAUGAGGAUCACCCAUGUACCCACGUAGGCCUGAGAAGAAGGAAGAUGAC [EX5 C.24] (Eterna round: R97, puzzle: Exclusion 5)
- apparent KD of MS2 coat protein (input ligand: FMN 200 uM): 0.0221 µM
- apparent KD of MS2 coat protein (input ligand: none): 0.0145 µM

Sequence: AAAAAGGUAGGAUAUACGAAAAAAAAGGGUAGAAAAAAAACACAUGAGGAUCACCCAUGUAGAAGGACCAAAAG [salish99_ex2_r3_045] (puzzle: Exclusion 2)
- apparent KD of MS2 coat protein [3]: 0.0587 µM
- apparent KD of MS2 coat protein [1]: 0.032 µM
- apparent KD of MS2 coat protein [4]: 0.0284 µM
